From US20220411491A1 (Hoffmann-La Roche, published 2022)
Substitutions are numbered along the chain they refer to.

B1: 10B10-TCB (bispecific antibody, human IgG1, kappa, L234A L235A)
light 1: DIQLTQSPHSLSASLGETVSIECLASEGISNYLAWFHQKPGKSPQLLIYYASSLQDGVPSRFSGSGSGTQYSLKISNMQPEDEGVYYCQQGYKYPLTFGSGTKLEIKRTVAAPSVFIFPPSDRKLKSGTASVVCLLNNFYPREAKVQWKVDNALQSGNSQESVTEQDSKDSTYSLSSTLTLSKADYEKHKVYACEVTHQGLSSPVTKSFNRGEC
light 2: EVQLLESGGGLVQPGGSLRLSCAASGFTFSTYAMNWVRQAPGKGLEWVSRIRSKYNNYATYYADSVKGRFTISRDDSKNTLYLQMNSLRAEDTAVYYCVRHGNFGNSYVSWFAYWGQGTLVTVSSASVAAPSVFIFPPSDEQLKSGTASVVCLLNNFYPREAKVQWKVDNALQSGNSQESVTEQDSKDSTYSLSSTLTLSKADYEKHKVYACEVTHQGLSSPVTKSFNRGEC
heavy 1: EVQLVESGGGLVQPGRSMKLSCAASGFTFTNFYMAWVRQAPTKALEWVASINTGGGYTYYRDSVKGRFTVSRDNTRSTLYLQMDSLRSEETATYYCARHLTYYGRYYYFDYWGQGVMVTVSSASTKGPSVFPLAPSSKSTSGGTAALGCLVEDYFPEPVTVSWNSGALTSGVHTFPAVLQSSGLYSLSSVVTVPSSSLGTQTYICNVNHKPSNTKVDEKVEPKSCDKTHTCPPCPAPEAAGGPSVFLFPPKPKDTLMISRTPEVTCVVVDVSHEDPEVKFNWYVDGVEVHNAKTKPREEQYNSTYRVVSVLTVLHQDWLNGKEYKCKVSNKALGAPIEKTISKAKGQPREPQVCTLPPSRDELTKNQVSLSCAVKGFYPSDIAVEWESNGQPENNYKTTPPVLDSDGSFFLVSKLTVDKSRWQQGNVFSCSVMHEALHNHYTQKSLSLSPGK
heavy 2: not shown
B2: P1AE5733 (antibody, V domains shown)
VH: EVQLVESGGGLVQPGRSLKLSCAASGFSFSNYGMAWVRQAATKGLEWVASISTGGGNTYYRDSVKGRFIVSRDNAKNTQYLQMDSLRSEDTATYYCTRHDRGGLYWGQGVMVTVSS
VL: DIVMTQAPLSVSVTPGESASISCRSSKSLLHSNGITYVYWYFQKPGKSPQVLIYRMSNLASGVPDRFSGSGSETDFTLKISRVEAEDVGIYHCGQLLENPYTFGAGTELELK
B3: P1AE5739 (antibody, V domains shown)
VH: EVQLVESGGGVVQPGRSLRLSCAASGFSFSNYGMAWVRQAPGKGLEWVASISTGGGNTYYRDSVKGRFTISRDNAKNTLYLQMNSLRAEDTAVYYCTRHDRGGLYWGQGTMVTVSS
VL: DIVMTQSPLSLPVTPGEPASISCRSSKSLLHSNGITYVYWYLQKPGQSPQVLIYRMSNLASGVPDRFSGSGSGTDFTLKISRVEAEDVGVYHCGQLLENPYTFGQGTKLEIK
B4: P1AE5742 (antibody, V domains shown)
VH: B3 VH
VL: DIVMTQSPDSLAVSLGERATINCKSSKSLLHSNGITYVYWYQQKPGQPPKLLIYRMSNLASGVPDRFSGSGSGTDFTLTISSLQAEDVAVYHCGQLLENPYTFGQGTKLEIK
B5: P1AE5743 (antibody, V domains shown)
VH: B3 VH
VL: EIVLTQSPGTLSLSPGERATLSCRASKSLLHSNGITYVYWYQQKPGQAPRLLIYRMSNLASGIPDRFSGSGSGTDFTLTISRLEPEDFAVYHCGQLLENPYTFGQGTKLEIK
B6: P1AE5747 (antibody, V domains shown)
VH: B3 VH with E1Q, R61A, A75S
VL: B4 VL
B7: P1AE5737 (antibody, V domains shown)
VH: B3 VH with E1Q, A75S
VL: B4 VL
B8: P1AE5745 (antibody, V domains shown)
VH: B3 VH with E1Q, R61A, A75S
VL: B3 VL with Q47K
B9: P1AE5762 (antibody, V domains shown)
VH: B3 VH with V11L, R16G, R61A
VL: B3 VL with V51L, L59R
B10: P1AE5754 (antibody, V domains shown)
VH: B3 VH with R61A
VL: B5 VL
B11: P1AE5756 (antibody, V domains shown)
VH: B3 VH with V11L, R16G
VL: B3 VL with Q47K
B12: P1AE5740 (antibody, V domains shown)
VH: B3 VH
VL: B3 VL with Q47K
B13: P1AE5764 (antibody, V domains shown)
VH: B3 VH with V11L, R16G, R61A
VL: B5 VL
B14: P1AE5757 (antibody, V domains shown)
VH: B3 VH with V11L, R16G
VL: B3 VL with V51L, L59R
B15: P1AE5758 (antibody, V domains shown)
VH: B3 VH with V11L, R16G
VL: B4 VL
B16: P1AE5735 (antibody, V domains shown)
VH: B3 VH with E1Q, A75S
VL: B3 VL with Q47K
B17: P1AE5755 (antibody, V domains shown)
VH: B3 VH with V11L, R16G
VL: B3 VL
B18: P1AE5751 (antibody, V domains shown)
VH: B3 VH with R61A
VL: B3 VL with Q47K
B19: P1AE5759 (antibody, V domains shown)
VH: B3 VH with V11L, R16G
VL: B5 VL
B20: P1AE5761 (antibody, V domains shown)
VH: B3 VH with V11L, R16G, R61A
VL: B3 VL with Q47K
B21: P1AE5736 (antibody, V domains shown)
VH: B3 VH with E1Q, A75S
VL: B3 VL with V51L, L59R
B22: P1AE5750 (antibody, V domains shown)
VH: B3 VH with R61A
VL: B3 VL
B23: P1AE5744 (antibody, V domains shown)
VH: B3 VH with E1Q, R61A, A75S
VL: B3 VL
B24: P1AE5734 (antibody, V domains shown)
VH: B3 VH with E1Q, A75S
VL: B3 VL
B25: P1AE5746 (antibody, V domains shown)
VH: B3 VH with E1Q, R61A, A75S
VL: B3 VL with V51L, L59R
B26: P1AE5763 (antibody, V domains shown)
VH: B3 VH with V11L, R16G, R61A
VL: B4 VL
B27: P1AE5752 (antibody, V domains shown)
VH: B3 VH with R61A
VL: B3 VL with V51L, L59R
B28: P1AE5753 (antibody, V domains shown)
VH: B3 VH with R61A
VL: B4 VL
B29: P1AE5738 (antibody, V domains shown)
VH: B3 VH with E1Q, A75S
VL: B5 VL
B30: P1AE5741 (antibody, V domains shown)
VH: B3 VH
VL: B3 VL with V51L, L59R
B31: P1AE5760 (antibody, V domains shown)
VH: B3 VH with V11L, R16G, R61A
VL: B3 VL
B32: P1AE5749 (antibody, V domains shown)
VH: B3 VH with E1Q, R61A, A75S
VL: B5 VL

The binders below were run against T1, human GPRC5D (human, UniProt Q9NZD1 1-345) (assay: cell-based or functional assay).
T1 sequence (Q9NZD1 whole entry): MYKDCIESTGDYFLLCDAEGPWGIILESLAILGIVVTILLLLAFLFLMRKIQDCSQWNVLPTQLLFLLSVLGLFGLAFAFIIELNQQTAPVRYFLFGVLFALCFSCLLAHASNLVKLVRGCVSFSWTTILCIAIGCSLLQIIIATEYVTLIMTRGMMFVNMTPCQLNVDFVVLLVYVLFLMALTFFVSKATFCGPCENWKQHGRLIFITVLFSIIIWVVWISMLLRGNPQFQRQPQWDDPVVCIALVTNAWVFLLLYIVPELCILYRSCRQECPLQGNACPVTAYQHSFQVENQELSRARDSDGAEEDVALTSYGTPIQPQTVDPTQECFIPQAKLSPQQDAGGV

Binder	EC50 of in vitro killing, AMO-1 [nM]	EC50 of in vitro killing, EJM [nM]	EC50 of in vitro killing, L363 [nM]	EC50 of in vitro killing, MOLP-2 [nM]	EC50 of in vitro killing, NCI-H929 [nM]	EC50 of in vitro killing, OPM-2 [nM]	EC50 of in vitro killing, RPMI [nM]
B1	0.084	0.079	0.034	0.16	0.056	0.028	0.965

Target: T1, human GPRC5D
Test: cell-based or functional assay
Remark: another data set of the same source

CAR-J2 EC50 [µg/mL]	Binder
0.00265	B2
0.0235	B3
0.0619	B4
0.583	B5
0.183	B6
0.00295	B7
0.00162	B8
0.0842	B9
0.00889	B10
0.17	B11
0.00896	B12
0.0782	B13
0.145	B14
0.19	B15
0.0821	B16
0.152	B17

CAR-J2 EC50 [µg/mL]	Binder
0.00644	B18
0.0157	B19
0.0746	B20
0.00138	B21
0.0206	B22
0.00363	B23
0.0415	B24
0.514	B25
0.00547	B26
0.509	B27
0.03	B28
0.397	B29
0.0014	B30
0.19	B31
0.0826	B32
